Reference: patent US20240182592A1 (CHIA TAI TIANQING PHARMACEUTICAL GROUP, published 2024)
Positions count from the first letter of the chain named. Read-outs that look alike come from different tables or passages of the source.

B1: anti-BCMA/anti-CD3 multispecific antibody PC1 (bispecific antibody, human IgG1)
chain 1: QVQLVESGGGLVQPGGSLRLSCAASGYSSNVACMAWYRQAPGKGLEWVATIVADFGTTNYAASVKGRFTISQDNSKNTVYLQMNSLRAEDTAVYYCAATQRGGIDWCDEINYWGQGTLVTVSSGGGGSGGGGSQVQLVESGGGLVQPGGSLRLSCAASGFTFNSACMGWFRQAPGKGREGVSRIETGYGGTVYADSVKGRFTISRDNSKNTVYLQMNSLRAEDTAVYYCAAKRSWCTPTWWHELDYNYWGQGTQVTVSSGEPKSSDKTHTCPPCPAPEAAGGPSVFLFPPKPKDTLMISRTPEVTCVVVDVSHEDPEVKFNWYVDGVEVHNAKTKPREEQYNSTYRVVSVLTVLHQDWLNGKEYKCKVSNKALAAPIEKTISKAKGQPREPQVCTLPPSREEMTKNQVSLSCAVKGFYPSDIAVEWESNGQPENNYKTTPPVLDSDGSFFLVSKLTVDKSRWQQGNVFSCSVMHEALHNHYTQKSLSLSPGK
chain 2: ELVVTQEPSLTTSPGGTVTLTCRSSTGAVTTSNYANWVQQKPGQAPRGLIGGTNKRAPGTPARFSGSLLGGKAALTITGVQPEDEAEYYCALWYSNLWVFGGGTKLTVLGGGGSGGGGSGGGGSEVQLVESGGGLVQPGGSLRLSCAASGFTFNTYAMNWVRQAPGKGLEWVARIRSKYNNYATYYADSVKDRFTISRDDSKNTAYLQMNNLKTEDTAMYYCVRHGNFGNSYVSWFAYWGQGTLVTVSSGEPKSSDKTHTCPPCPAPEAAGGPSVFLFPPKPKDTLMISRTPEVTCVVVDVSHEDPEVKFNWYVDGVEVHNAKTKPREEQYNSTYRVVSVLTVLHQDWLNGKEYKCKVSNKALAAPIEKTISKAKGQPREPQVYTLPPCREEMTKNQVSLWCLVKGFYPSDIAVEWESNGQPENNYKTTPPVLDSDGSFFLYSKLTVDKSRWQQGNVFSCSVMHEALHNRFTQKSLSLSPGK
notes: Trivalent; two chains; human IgG1 knobs-into-holes Fc
B2: anti-BCMA/anti-CD3 bispecific control antibody Benchmark (bispecific antibody, human IgG1, kappa, L234A L235A)
heavy 1: not shown
light 1: not shown
heavy 2: not shown
light 2: EVQLLESGGGLVQPGGSLRLSCAASGFTFSTYAMNWVRQAPGKGLEWVSRIRSKYNNYATYYADSVKGRFTISRDDSKNTLYLQMNSLRAEDTAVYYCVRHGNFGNSYVSWFAYWGQGTLVTVSSASVAAPSVFIFPPSDEQLKSGTASVVCLLNNFYPREAKVQWKVDNALQSGNSQESVTEQDSKDSTYSLSSTLTLSKADYEKHKVYACEVTHQGLSSPVTKSFNRGEC
notes: Control from Celgene (US20190263920A1): two anti-BCMA Fabs and one anti-CD3 Fab; also called Celgene BM; celgene BM
B3: 1A10-V1 (antibody, human IgG1, V domains shown)
VH: QVQLVESGGGLVQPGGSLRLSCAASGYSSNVACMAWYRQAPGKGLEWVATIVADFGTTNYAASVKGRFTISQDNSKNTVYLQMNSLRAEDTAVYYCAATQRGGIDWCDEINYWGQGTLVTVSS
notes: Humanized VHH fused to human IgG1 Fc; also called humanized antibody 1A10-V1
B4: 1A10-V2 (antibody, human IgG1, V domains shown)
VH: B3 VH with G44E, L45R, A49S
notes: Humanized VHH fused to human IgG1 Fc; also called humanized antibody 1A10-V2
B5: 1A11-V1 (antibody, human IgG1, V domains shown)
VH: QVQLVESGGGLVQPGGSLRLSCAASGFTFNSACMGWFRQAPGKGREGVSRIETGYGGTVYADSVKGRFTISRDNSKNTVYLQMNSLRAEDTAVYYCAAKRSWCTPTWWHELDYNYWGQGTQVTVSS
notes: Humanized VHH fused to human IgG1 Fc; also called humanized antibody 1A11-V1
B6: 1A11-V2 (antibody, human IgG1, V domains shown)
VH: B5 VH with G44E, R87K
notes: Humanized VHH fused to human IgG1 Fc; also called humanized antibody 1A11-V2

Experiments:
human BCMA on cells [1] = target: T1, human BCMA on cells (human, UniProt Q02223 1-184); experiment: flow cytometry, NCI-H929 cells
T1 construct: whole, on cells; also called CHO-hBCMA cells; U266 cells
T1 sequence (looked up): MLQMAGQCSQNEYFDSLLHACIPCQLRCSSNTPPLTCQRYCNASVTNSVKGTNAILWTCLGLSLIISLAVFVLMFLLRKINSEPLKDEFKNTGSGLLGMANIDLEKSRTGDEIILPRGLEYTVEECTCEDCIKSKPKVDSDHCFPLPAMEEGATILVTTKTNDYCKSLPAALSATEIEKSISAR
Description: (§1) NCI-H929 cells (BCMA+++), MM1S cells (BCMA++), and RPMI-8226 cells (BCMA+) in the logarithmic growth phase were taken, adjusted to a cell density of 5×10⁶-10×10⁶ cells/mL using RPMI medium (Hyclon, catalog No. SH30809.01) containing 2% FBS (fetal bovine serum), respectively, and seeded in a 96-well U-bottom cell culture plate (Costar, catalog No. 3799) at 50 μL per well. The test antibodies at different concentrations were prepared using the medium described above. […] The antibodies at different concentrations were added to the 96-well cell culture plate described above at 50 μL per well, mixed well and incubated at 4° C. for 1 h. The cells were washed with pre-cooled running buffer (MACS, catalog No. 130-091-221), and the supernatant was discarded. Pre-cooled fluorescent labeled goat anti-human IgG antibodies (Jackson, catalog No. 109-116-170) were added, and the cells were resuspended at 100 μL per well, mixed well and incubated at 4° C. for 30 min. After washing, 100 μL of pre-cooled running buffer was added to resuspend the cells. The cells were mixed well and collected while flowing on an Attune™ NxT flow cytometer, and the data was analyzed using Graphpad Prism5 software. FIGS. 7-9 and Table 11 show the binding ability of the anti-BCMA/anti-CD3 multispecific antibodies to NCI-H929 cells (BCMA+++), MM1S cells (BCMA++), and RPMI-8226 cells (BCMA+).

human BCMA on cells [2] = target: T1, human BCMA on cells; experiment: flow cytometry, MM1S cells
Description: as §1

T cell surface CD3 = target: T2, T cell surface CD3 (human, UniProt P07766 23-207); experiment: flow cytometry, human CD3+ T cells
T2 construct: whole, on cells; also called CD3^+ T cells
T2 sequence (P07766 23-207): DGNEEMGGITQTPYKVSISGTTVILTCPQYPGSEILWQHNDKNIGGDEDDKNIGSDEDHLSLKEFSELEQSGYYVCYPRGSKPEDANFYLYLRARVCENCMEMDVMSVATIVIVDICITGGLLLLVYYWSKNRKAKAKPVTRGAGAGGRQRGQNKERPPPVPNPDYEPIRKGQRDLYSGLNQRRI
Description: Human PBMC cells were sorted for CD3⁺ T cells using CD3 magnetic beads (Miltenyi, catalog No. 130-097-043): the cryopreserved PBMCs were thawed, and washed by centrifugation twice for counting. Running buffer (MACS, catalog No. 130-091-221) was added in a cell-to-buffer ratio of 10⁷:80 μL, CD3 beads were added in a cell-to-bead ratio of 10⁷:20 μL, and the mixture was mixed well and incubated at 4° C. for 15 min. The cells were washed with buffer in a cell-to-buffer ratio of 10⁷:1-2 mL. After centrifugation, the supernatant was discarded, and 500 μL of buffer was added to resuspend the cell pellet. The LS sorting column (Miltenyi, catalog No. 130-042-401) was placed on the MidiMACS Starting Kit (LS) magnetic rack (Miltenyi, catalog No. 130-091-051). After rinsing, the cell suspension was added and washed thrice. The LS sorting column was removed from the magnetic rack and placed on a clean centrifuge tube and 5 mL buffer was added to collect the sorted CD3⁺ T cells. After counting, the CD3⁺ T cells were adjusted to a cell density of 5×10⁶-10×10⁶ cells/mL using RPMI medium (Hyclone, catalog No. SH30809.01) containing 2% FBS (fetal bovine serum) and seeded in a 96-well U-bottom cell culture plate (Costar, catalog No. 3799) at 50 μL per well. The test antibodies at different concentrations were prepared using the medium described above. […] The antibodies at different concentrations were added to the 96-well cell culture plate described above at 50 μL per well, mixed well and incubated at 4° C. for 1 h. The cells were washed with pre-cooled running buffer (MACS, catalog No. 130-091-221), and the supernatant was discarded. Pre-cooled fluorescent labeled goat anti-human IgG antibodies (Jackson, catalog No. 109-116-170) were added, and the cells were resuspended at 100 μL per well, mixed well and incubated at 4° C. for 30 min. After washing, 100 μL of pre-cooled running buffer was added to resuspend the cells.

[3] = target: T3, human CD3e (Acro, Cat. No. CDE-H5223) (human, UniProt P07766 23-126); experiment: SPR (Biacore T200), antibody captured by anti-hIgG, human CD3e as analyte, 1:1 model
T3 construct: also called human CD3e protein; hCD3e
T3 sequence (P07766 23-126 limits assumed): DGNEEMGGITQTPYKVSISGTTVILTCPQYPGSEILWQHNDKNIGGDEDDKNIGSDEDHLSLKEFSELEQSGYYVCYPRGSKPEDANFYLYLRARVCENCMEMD
Description: (§2) The affinity of the test antibody for human CD3e or human BCMA protein was determined by Biacore T200 (GE) as follows:
(§3) The response signals were detected in real time using Biacore software, and association and dissociation curves were obtained. The buffer used in the experiment was Biacore universal buffer (137 mM NaCl, 2.7 mM KCl, 10 mM Na₂HPO₄.12H₂O, 1.8 mM KH₂PO₄. 0.05% surfactant P-20 (w/v), pH 7.4). […] The flow rate in the flow cell was at 50 μL/min, the association was performed for 240 s, the dissociation was performed for 1400 s, the regeneration was performed using 3 M MgCl (GE) for 60 s, and the baseline was stable. Results were obtained by calculation according to the affinity and kinetics 1:1 binding mode in biacore evaluation software.

human BCMA on cells [4] = target: T1, human BCMA on cells; experiment: cell-based or functional assay
human BCMA on cells [5] = target: T1, human BCMA on cells; experiment: cell-based or functional assay; remark: listed apart in the source
human BCMA protein [6] = target: T4, human BCMA protein (human, UniProt Q02223 1-54, limits assumed); experiment: SPR (Biacore T200), antibody captured by anti-hIgG, human BCMA as analyte, 1:1 model
T4 construct: also called hBCMA; Antigen BCMA
T4 sequence (looked up): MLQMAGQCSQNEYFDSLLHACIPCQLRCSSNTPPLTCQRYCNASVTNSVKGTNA
Description: as §2, §3

human BCMA on cells [7] = target: T1, human BCMA on cells; experiment: cell-based or functional assay; remark: listed apart in the source
human BCMA protein [8] = target: T4, human BCMA protein; experiment: SPR (Biacore T200), antibody captured by anti-hIgG, human BCMA as analyte, 1:1 model; remark: listed apart in the source
Description: The affinity of the test antibody for human BCMA protein was determined by Biacore T200 (GE) as follows:
as §3, with “KH₂PO₄,” for “KH₂PO₄.”, “MgCl₂” for “MgCl”

Binder	EC50 (human BCMA on cells [1])	Top(MFI) (human BCMA on cells [1])	EC50 (human BCMA on cells [2])	Top(MFI) (human BCMA on cells [2])	EC50 (T cell surface CD3)	Top(MFI) (T cell surface CD3)	Kd [3]	Lysis EC50, RPMI-8226 cells with human PBMCs (E:T 10:1, 24 h, LDH release) (human BCMA on cells [4])	Maximum lysis rate, RPMI-8226 cells with human PBMCs (human BCMA on cells [4])	Lysis EC50, NCI-H929 cells with human PBMCs (E:T 10:1, 24 h, LDH release) (human BCMA on cells [5])	Maximum lysis rate, NCI-H929 cells with human PBMCs (human BCMA on cells [5])	Kd (human BCMA protein [6])	Lysis EC50, MM1S cells with human PBMCs (E:T 10:1, 24 h, LDH release) (human BCMA on cells [7])	Maximum lysis rate, MM1S cells with human PBMCs (human BCMA on cells [7])	Kd (human BCMA protein [8])
B1	1.26 nM	226000 MFI	0.35 nM	100000 MFI	485 nM	92900 MFI	1.43 nM	0.007 nM	29%	0.0674 nM	36%	0.0396 nM	0.0084 nM	26%	
B2	0.821 nM	166000 MFI	0.381 nM	71400 MFI	18.1 nM	93500 MFI	1.6 nM	0.271 nM	29%	0.0444 nM	41%	0.821 nM	0.0847 nM	23%	
B3															0.337 nM
B4															1.31 nM
B5															5.05 nM
B6															4.37 nM
